Measured values from paper PMC3536650.
One block for each substance: values may come before it.

Assays:
Experiment in all cases: cross-linking; engineered disulfide bridge in purified EF1; overnight with 400 µM DTNB (oxidised), 10 mM DTT (reduced), 30 mM DTT (re-reduced); SDS-PAGE with non-oxidizing sample buffer, Coomassie; yield from the change of the γ-band, oxidized against reduced; immunoblots against α and γ
[1] = target: E. coli F1-ATPase subunit α with αP281C, in the cysteine-free EF1 mutant FH4 (Escherichia coli) (UniProt P0ABB0)
[2] = target: E. coli F1-ATPase subunit α with αP280C, in the cysteine-free EF1 mutant GH54 (Escherichia coli) (UniProt P0ABB0)
[3] = target: E. coli F1-ATPase subunit α with αE284C, in the cysteine-free EF1 mutant GH19 (Escherichia coli) (UniProt P0ABB0)

cross-link yield [1]: 85%
Substance: E. coli F1-ATPase subunit γ with γK109C and γI279C, in the cysteine-free EF1 mutant FH4 (natural protein)

cross-link yield [2]: 90%
Substance: E. coli F1-ATPase subunit γ with γK109C, γA213C and γG282C, in the cysteine-free EF1 mutant GH54 (natural protein)

cross-link yield [3]: > 95%
Substance: E. coli F1-ATPase subunit γ with γK109C, γA213C and γL276C, in the cysteine-free EF1 mutant GH19 (natural protein)
